In test [1] the target is T1, FcγRIIb extracellular domain with C-terminal His tag (human, UniProt P31994 43-217).
T1 construct: extracellular domain; also called FcgRIIb; 2b; not shown: His tag at the C terminus
T1 sequence (looked up): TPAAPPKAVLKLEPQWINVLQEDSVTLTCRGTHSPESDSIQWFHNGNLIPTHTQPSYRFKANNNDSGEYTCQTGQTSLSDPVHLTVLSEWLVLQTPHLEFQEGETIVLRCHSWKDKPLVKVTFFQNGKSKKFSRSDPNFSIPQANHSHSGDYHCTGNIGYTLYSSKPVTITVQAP
The test can be described thus: SPR (Biacore), captured antibody, FcγR as analyte; relative to GpH7-A5/GpH7-B3/GpL16-k0 = 100. The protocol:
(§1) Analysis of interaction between objective antibody and the FcγR was carried out using Biacore T100 (GE Healthcare). HBS-EP+ (GE Healthcare) was used as the running buffer, and the measurement temperature was set to 25° C. Chips produced by immobilizing the antigen peptide by the amine coupling method to a Series S Sencor Chip CM5 (GE Healthcare), or alternatively, chips produced by allowing preliminarily biotinylated antigen peptides to interact with and immobilize onto a Series S Sensor Chip SA (certified) (GE Healthcare) were used. Antibodies of interest were captured onto an antigen peptide-immobilized chip, and allowed to interact to each FcγR diluted with running buffer. To regenerate and repeatedly use the chip, the antibodies captured on the chip were washed off by reacting 10 mM glycine-HCl, pH 1.5.
(§2) The FcγR-binding activity of each antibody was assessed primarily using as an indicator the FcγR-binding activity and dissociation constant for FcγR.
For orientation: SPR reads the build-up and loss of mass on a sensor chip optically.

The target of test [2] is T2, FcγRIIIa extracellular domain with C-terminal His tag (human, UniProt P08637 17-208).
T2 construct: extracellular domain; also called FcgRIIIa; 3a; not shown: His tag at the C terminus
T2 sequence (P08637 17-208): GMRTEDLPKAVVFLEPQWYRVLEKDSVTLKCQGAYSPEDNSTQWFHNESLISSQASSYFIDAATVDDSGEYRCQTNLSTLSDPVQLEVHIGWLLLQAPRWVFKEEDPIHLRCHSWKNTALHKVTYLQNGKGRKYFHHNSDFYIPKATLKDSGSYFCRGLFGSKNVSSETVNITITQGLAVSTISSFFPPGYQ
The description is as above. The protocol: as §1, §2

B1: GpH7-A5/GpH7-B3 variant G236_11K/GpL16-k0 (heterodimerized antibody, He Ab) (antibody, human IgG1, kappa)
heavy 1: not shown
heavy 2: not shown
light: DIVMTQSPLSLPVTPGEPASISCQASESLVHSNRNTYLHWYLQKPGQSPQLLIYKVSNRFSGVPDRFSGSGSGTDFTLKISRVEAEDVGVYYCSQNTHVPPTFGQGTKVEIERTVAAPSVFIFPPSDEQLKSGTASVVCLLNNFYPREAKVQWKVDNALQSGNSQESVTEQDSKDSTYSLSSTLTLSKADYEKHKVYACEVTHQGLSSPVTKSFNRGEC
notes: Anti-glypican-3 IgG1; the alteration is in the GpH7-B3 chain only; also called G236K
Turning to B1, the “He/Con_2b (IIb binding)” value in test [1] was 49.8 % of HeCon Ab. The “He/Con_3a (IIIa binding)” value in test [2] is 18.6 % of HeCon Ab.

B2: GpH7-A5/GpH7-B3 variant G237_20W/GpL16-k0 (heterodimerized antibody, He Ab) (antibody, human IgG1, kappa)
heavy 1: not shown
heavy 2: not shown
light: B1 light
notes: Anti-glypican-3 IgG1; the alteration is in the GpH7-B3 chain only; also called G237W
Take B2: in test [1], the “He/Con_2b (IIb binding)” value is 193 % of HeCon Ab. The “He/Con_3a (IIIa binding)” value in test [2] is 19.7 % of HeCon Ab.

B3: GpH7-A5/GpH7-B3 variant G237_08L/GpL16-k0 (heterodimerized antibody, He Ab) (antibody, human IgG1, kappa)
heavy 1: not shown
heavy 2: not shown
light: B1 light
notes: Anti-glypican-3 IgG1; the alteration is in the GpH7-B3 chain only; also called G237L
For the molecule B3, the “He/Con_2b (IIb binding)” value in test [1] was 148 % of HeCon Ab. Further, the “He/Con_3a (IIIa binding)” value in test [2] is 24.9 % of HeCon Ab.

B4: GpH7-A5/GpH7-B3 variant G237_05P/GpL16-k0 (heterodimerized antibody, He Ab) (antibody, human IgG1, kappa)
heavy 1: not shown
heavy 2: not shown
light: B1 light
notes: Anti-glypican-3 IgG1; the alteration is in the GpH7-B3 chain only; also called G237P
On to B4, for which the “He/Con_2b (IIb binding)” value in test [1] was 24.6 % of HeCon Ab. Also, the “He/Con_3a (IIIa binding)” value in test [2] was 10.9 % of HeCon Ab.

B5: GpH7-A5/GpH7-B3 variant G236_13S/GpL16-k0 (heterodimerized antibody, He Ab) (antibody, human IgG1, kappa)
heavy 1: not shown
heavy 2: not shown
light: B1 light
notes: Anti-glypican-3 IgG1; the alteration is in the GpH7-B3 chain only; also called G236S
In the case of B5, the “He/Con_2b (IIb binding)” value in test [1] was 96.7 % of HeCon Ab. In addition, in test [2], the “He/Con_3a (IIIa binding)” value is 64.8 % of HeCon Ab.

B6: GpH7-A5/GpH7-B3 variant L235_20W/GpL16-k0 (heterodimerized antibody, He Ab) (antibody, human IgG1, kappa)
heavy 1: not shown
heavy 2: not shown
light: B1 light
notes: Anti-glypican-3 IgG1; the alteration is in the GpH7-B3 chain only; also called L235W
Regarding B6, the “He/Con_2b (IIb binding)” value in test [1] was 147 % of HeCon Ab. Further, in test [2], the “He/Con_3a (IIIa binding)” value was 76.4 % of HeCon Ab.

B7: GpH7-A5/GpH7-B3 variant P238_16H/GpL16-k0 (heterodimerized antibody, He Ab) (antibody, human IgG1, kappa)
heavy 1: not shown
heavy 2: not shown
light: B1 light
notes: Anti-glypican-3 IgG1; the alteration is in the GpH7-B3 chain only; also called P238H
As for B7, the “He/Con_2b (IIb binding)” value in test [1] is 115 % of HeCon Ab. Besides, the “He/Con_3a (IIIa binding)” value in test [2] was 30.7 % of HeCon Ab.

B8: GpH7-A5/GpH7-B3 variant P238_06M/GpL16-k0 (heterodimerized antibody, He Ab) (antibody, human IgG1, kappa)
heavy 1: not shown
heavy 2: not shown
light: B1 light
notes: Anti-glypican-3 IgG1; the alteration is in the GpH7-B3 chain only; also called P238M
Turning to B8, the “He/Con_2b (IIb binding)” value in test [1] was 174 % of HeCon Ab. For the same molecule, the “He/Con_3a (IIIa binding)” value in test [2] is 30.5 % of HeCon Ab.

B9: GpH7-A5/GpH7-B3 variant G237_06M/GpL16-k0 (heterodimerized antibody, He Ab) (antibody, human IgG1, kappa)
heavy 1: not shown
heavy 2: not shown
light: B1 light
notes: Anti-glypican-3 IgG1; the alteration is in the GpH7-B3 chain only; also called G237M
As for B9, the “He/Con_2b (IIb binding)” value in test [1] was 130 % of HeCon Ab. Also, the “He/Con_3a (IIIa binding)” value in test [2] is 31.9 % of HeCon Ab.

B10: GpH7-A5/GpH7-B3 variant G237_09D/GpL16-k0 (heterodimerized antibody, He Ab) (antibody, human IgG1, kappa)
heavy 1: not shown
heavy 2: not shown
light: B1 light
notes: Anti-glypican-3 IgG1; the alteration is in the GpH7-B3 chain only; also called G237D
Consider B10, for which the “He/Con_2b (IIb binding)” value in test [1] was 223 % of HeCon Ab. In addition, the “He/Con_3a (IIIa binding)” value in test [2] was 17.7 % of HeCon Ab.

B11: GpH7-A5/GpH7-B3 variant L235_16H/GpL16-k0 (heterodimerized antibody, He Ab) (antibody, human IgG1, kappa)
heavy 1: not shown
heavy 2: not shown
light: B1 light
notes: Anti-glypican-3 IgG1; the alteration is in the GpH7-B3 chain only; also called L235H
Turning to B11, the “He/Con_2b (IIb binding)” value in test [1] was 76.9 % of HeCon Ab. In addition, the “He/Con_3a (IIIa binding)” value in test [2] is 59.1 % of HeCon Ab.

B12: GpH7-A5/GpH7-B3 variant P238_19Q/GpL16-k0 (heterodimerized antibody, He Ab) (antibody, human IgG1, kappa)
heavy 1: not shown
heavy 2: not shown
light: B1 light
notes: Anti-glypican-3 IgG1; the alteration is in the GpH7-B3 chain only; also called P238Q
Take B12: the “He/Con_2b (IIb binding)” value in test [1] was 110 % of HeCon Ab. In addition, the “He/Con_3a (IIIa binding)” value in test [2] is 55.8 % of HeCon Ab.

B13: GpH7-A5/GpH7-B3 variant P238_15Y/GpL16-k0 (heterodimerized antibody, He Ab) (antibody, human IgG1, kappa)
heavy 1: not shown
heavy 2: not shown
light: B1 light
notes: Anti-glypican-3 IgG1; the alteration is in the GpH7-B3 chain only; also called P238Y
As for B13, the “He/Con_2b (IIb binding)” value in test [1] was 218 % of HeCon Ab. In addition, the “He/Con_3a (IIIa binding)” value in test [2] is 64.5 % of HeCon Ab.

B14: GpH7-A5/GpH7-B3 variant P238_14T/GpL16-k0 (heterodimerized antibody, He Ab) (antibody, human IgG1, kappa)
heavy 1: not shown
heavy 2: not shown
light: B1 light
notes: Anti-glypican-3 IgG1; the alteration is in the GpH7-B3 chain only; also called P238T
Regarding B14, the “He/Con_2b (IIb binding)” value in test [1] is 50.7 % of HeCon Ab. Moreover, the “He/Con_3a (IIIa binding)” value in test [2] was 28 % of HeCon Ab.

B15: GpH7-A5/GpH7-B3 variant L235_15Y/GpL16-k0 (heterodimerized antibody, He Ab) (antibody, human IgG1, kappa)
heavy 1: not shown
heavy 2: not shown
light: B1 light
notes: Anti-glypican-3 IgG1; the alteration is in the GpH7-B3 chain only; also called L235Y
In the case of B15, the “He/Con_2b (IIb binding)” value in test [1] is 149 % of HeCon Ab. In addition, the “He/Con_3a (IIIa binding)” value in test [2] is 80.6 % of HeCon Ab.

B16: GpH7-A5/GpH7-B3 variant P238_08L/GpL16-k0 (heterodimerized antibody, He Ab) (antibody, human IgG1, kappa)
heavy 1: not shown
heavy 2: not shown
light: B1 light
notes: Anti-glypican-3 IgG1; the alteration is in the GpH7-B3 chain only; also called P238L
B16: the “He/Con_2b (IIb binding)” value in test [1] was 204 % of HeCon Ab. The “He/Con_3a (IIIa binding)” value in test [2] was 75.5 % of HeCon Ab.

B17: GpH7-A5/GpH7-B3 variant G237_15Y/GpL16-k0 (heterodimerized antibody, He Ab) (antibody, human IgG1, kappa)
heavy 1: not shown
heavy 2: not shown
light: B1 light
notes: Anti-glypican-3 IgG1; the alteration is in the GpH7-B3 chain only; also called G237Y
Consider B17, for which the “He/Con_2b (IIb binding)” value in test [1] is 152 % of HeCon Ab. For the same molecule, the “He/Con_3a (IIIa binding)” value in test [2] was 22.1 % of HeCon Ab.

B18: GpH7-A5/GpH7-B3 variant G237_10E/GpL16-k0 (heterodimerized antibody, He Ab) (antibody, human IgG1, kappa)
heavy 1: not shown
heavy 2: not shown
light: B1 light
notes: Anti-glypican-3 IgG1; the alteration is in the GpH7-B3 chain only; also called G237E
For B18, the “He/Con_2b (IIb binding)” value in test [1] is 114 % of HeCon Ab. In addition, the “He/Con_3a (IIIa binding)” value in test [2] was 25.4 % of HeCon Ab.

B19: GpH7-A5/GpH7-B3 variant G237_02A/GpL16-k0 (heterodimerized antibody, He Ab) (antibody, human IgG1, kappa)
heavy 1: not shown
heavy 2: not shown
light: B1 light
notes: Anti-glypican-3 IgG1; the alteration is in the GpH7-B3 chain only; also called G237A
Take B19: the “He/Con_2b (IIb binding)” value in test [1] is 124 % of HeCon Ab. Also, the “He/Con_3a (IIIa binding)” value in test [2] was 48.8 % of HeCon Ab.

These data come from patent US20180155451A1 (published 2018).
